Experimental findings from patent publication US20030082740A1, “Histidine proline rich glycoprotein (HPRG) as an anti-angiogenic and anti-tumor agent” (priority 2001, published 2003) are described below.

“Also recorded” adds a separate entry of the source.

One assay relates to HUVEC. Kind of assay: Endothelial cell tube formation on Matrigel. The class given is cell-based, human. As to conditions: for Inhibits Angiogenesis (Matrigel® assay): tube formation, concentration not stated. As for the experimental part: Endothelial cells, for example, human umbilical vein endothelial cells (HUVEC) or human microvascular endothelial cells (HMVEC) which can be prepared or obtained commercially, are mixed at a concentration of 2×10^5 cells/mL with fibrinogen (5 mg/mL in phosphate buffered saline (PBS) in a 1:1 (v/v) ratio. Thrombin is added (5 units/ mL final concentration) and the mixture is immediately transferred to a 24-well plate (0.5 mL per well). The fibrin gel is allowed to form and then VEGF and bFGF are added to the wells (each at 5 ng/mL final concentration) along with the test compound. The cells are incubated at 37° C. in 5% CO2 for 4 days at which time the cells in each well are counted and classified as either rounded, elongated with no branches, elongated with one branch, or elongated with 2 or more branches. Results are expressed as the average of 5 different wells for each concentration of compound. Typically, in the presence of angiogenic inhibitors, cells remain either rounded or form undifferentiated tubes (e.g. 0 or 1 branch).
This assay is recognized in the art to be predictive of angiogenic (or anti-angiogenic) efficacy in vivo (Min, H Y et al., Cancer Res. 56: 2428-2433,1996). In an alternate assay, endothelial cell tube formation is observed when endothelial cells are cultured on Matrigel® (Schnaper et al., J. Cell. Physiol. 165:107-118 1995). Endothelial cells (1×10^4 cells/well) are transferred onto Matrigel®-coated 24-well plates, and tube formation is quantitated after 48 hrs. Inhibitors are tested by adding them either at the same time as the endothelial cells or at various time points thereafter. Tube formation can also be stimulated by adding (a) angiogenic growth factors such as bFGF or VEGF, (b) differentiation stimulating agents (e.g.,. PMA) or (c) a combination of these.
HUVEC were seeded onto Matrigel®-coated 96 well plates. Photomicrographs showing results are in FIGS. 4A and 4B.
Endothelial cell tube formation on Matrigel® was stimulated by incubation for 24 hr with FGF-2 (20 ng/ml ), VEGF (20 ng/ml ) and PMA (40 ng/ml ) for 24 hours (FIG. 4A).
Matrigel® tube formation assays in vitro were carried out as described above.

Assay [1] relates to Lewis lung adenocarcinoma 3LL cells. Nature of the assay: Matrigel plug model, 3LL tumor cell-mediated angiogenesis. Conditions: concentration not given; FIG. 7 legend. In kind it is in vivo, mouse. An excerpt: In this assay, tumor cells, for example 1-5×10^6 cells of the 3LL Lewis lung carcinoma or the rat prostate cell line MatLyLu, are mixed with Matrigel® and then injected into the flank of a mouse following the protocol described in Sec. B., above. A mass of tumor cells and a powerful angiogenic response can be observed in the plugs after about 5 to 7 days. The anti-tumor and anti-angiogenic action of a compound in an actual tumor environment can be evaluated by including it in the plug. Measurement is then made of tumor weight, Hb levels or fluorescence levels (of a dextran-fluorophore conjugate injected prior to sacrifice). To measure Hb or fluorescence, the plugs are first homogenize with a tissue homogenizer.
The methods used in this study were essentially the same as described in Example VI except that 3LL tumor cells were used to stimulate angiogenesis instead of bFGF. Lewis lung adenocarcinoma 3LL cells (10^6 cells/plug) were mixed with cold Matrigel prior to injection. After seven days, the animals are sacrificed by cervical dislocation and the Matrigel® plugs recovered and processed as above.

Assay [2] deals with angiogenesis stimulated by FGF-2. Nature of the assay: Matrigel plug model, angiogenesis stimulated by FGF-2. Conditions: 0.25 μM in plug; 7 days. In kind it is in vivo, mice. As to the method:
This assay is performed essentially as described by Passaniti et al. (Lab Invest. 67:519-528 (1992). Ice-cold Matrigel® (e.g., 500 μL) (Collaborative Biomedical Products, Inc., Bedford, Mass.) is mixed with heparin (e.g., 50 μg/ml), FGF-2 (e.g., 400 ng/ml) and the compound to be tested. In some assays, bFGF may be substituted with tumor cells as the angiogenic stimulus. The Matrigel® mixture is injected subcutaneously into 4-8 week-old athymic nude mice at sites near the abdominal midline, preferably 3 injections per mouse. The injected Matrigel® forms a palpable solid gel. Injection sites are chosen such that each animal receives a positive control plug (such as FGF-2+ heparin), a negative control plug (e.g., buffer+heparin) and a plug that includes the compound being tested for its effect on angiogenesis, e.g., (FGF-2+heparin+compound). […] Hemoglobin (Hb) levels are determined using Drabkin's solution (e.g., obtained from Sigma) according to the manufacturers' instructions. […] The amount of fluorescence in the dispersed plug, determined fluorimetrically, also serves as a measure of angiogenesis in the plug. […]
In this study, ice-cold Matrigel® (500 μL) was mixed with heparin (50 μg/ml), FGF-2 (400 ng/ml) and the compound to be tested. […] Hemoglobin levels were determined using Drabkin's solution (from Sigma) according to the manufacturers' instructions.

For assay [3], the system named is human umbilical vein endothelial cell (HUVEC). Kind of assay: bFGF-stimulated HUVEC proliferation (MTS). In kind it is cell-based. As to conditions: 48 hours. As to the method:
The ability of the compounds of the invention to inhibit the proliferation of EC's may be determined in a 96-well format. Type I collagen (gelatin) is used to coat the wells of the plate (0.1-1 mg/mL in PBS, 0.1 mL per well for 30 minutes at room temperature). After washing the plate (3× w/PBS), 3-6,000 cells are plated per well and allowed to attach for 4 hrs (37° C./5% CO2) in Endothelial Growth Medium (EGM; Clonetics) or M199 media containing 0.1-2% FBS. The media and any unattached cells are removed at the end of 4 hrs and fresh media containing bFGF (1-10 ng/mL) or VEGF (1-10 ng/mL) is added to each well. Compounds to be tested are added last and the plate is allowed to incubate (37° C./5% CO2) for 24-48 hrs. MTS (Promega) is added to each well and allowed to incubate from 1-4 hrs. The absorbance at 490 nm, which is proportional to the cell number, is then measured to determine the differences in proliferation between control wells and those containing test compounds.
bFGF is used to stimulate human umbilical vein endothelial cell (HUVEC) proliferation. Cells are incubated in the presence of bFGF alone or with added inhibitors of proliferation for 48 hours in a 96 well plate. Proliferation is then measured using the colorimetric reagent, MTS. […]

The subject of assay [4] is CAM of an 8-day old chick embryo. Kind of assay: Chick chorioallantoic membrane (CAM) angiogenesis assay. In kind it is in vivo. As to conditions: inhibitor at 20 μg/ml with bFGF 30 μg/ml; counted 4 days after implantation. As to the method:
This assay is performed essentially as described by Nguyen et al. (Microvascular Res. 47:31-40 (1994)). A mesh containing either angiogenic factors (bFGF) or tumor cells plus inhibitors is placed onto the CAM of an 8-day old chick embryo and the CAM observed for 3-9 days after implantation of the sample. Angiogenesis is quantitated by determining the percentage of squares in the mesh which contain blood vessels.
This assay was performed essentially as described by Nguyen et al. (Microvascular Res. 47:31-40 (1994)). […] Angiogenesis was quantitated by counting the number of microvessels that contacted the filter. In this experiment, microvessel were counted 4 days after implantation of the filter.

For the next assay, the system named is caspase-3. Kind of assay: Caspase-3 activity in bFGF-stimulated HUVEC. The class given is cell-based, human. Conditions: rHPRG at 10 and 100 nM, H/P at similar concentrations, relative to HKa. As for the experimental part: The ability of the compounds of the invention to promote apoptosis of EC's may be determined by measuring activation of caspase-3. Type I collagen (gelatin) is used to coat a P100 plate and 5×10^5 ECs are seeded in EGM containing 10% FBS. After 24 hours (at 37° C. in 5% CO2) the medium is replaced by EGM containing 2% FBS, 10 ng/ml bFGF and the desired test compound. The cells are harvested after 6 hours, cell lysates prepared in 1% Triton and assayed using the EnzChek® Caspase-3 Assay Kit #1 (Molecular Probes) according to the manufactures' instructions.
In order to evaluate whether the observed anti-proliferative activity of HPRG was due to an induction of apoptosis, the activity of caspase-3 (an enzyme that is central to several pro-apoptotic pathways) was measured. HUVEC were grown in 100 mm^2 petri dishes in the presence of bFGF or bFGF+HPRG. Cells were extracted and caspase-3 activity measured using a fluorescent substrate.

In the case of APPHG [ATN246], the “Inhibits Angiogenesis (Matrigel® assay)” value in the assay on HUVEC is given as “No”; in the assay with HUVEC (listed as APPHG), “no effect on neovascularization”.
Turning to “His-His-Pro-His-Gly (HHPHG; printed: His-His-Pro-His-Gly) [ATN230]”, the “Inhibits Angiogenesis (Matrigel® assay)” value with HUVEC is listed as “Yes”; in the assay with HUVEC (listed as HHPHG), “active”.
On to “His-Pro-Pro-His-Gly (HPPHG; printed: His-Pro-Pro-His-Gly) [ATN228]”, for which the “Inhibits Angiogenesis (Matrigel® assay)” value is given as “Yes” in the assay with HUVEC and “active” in the assay on HUVEC (listed as HPPHG).

B1: HPRG: Histidine proline rich glycoprotein; rabbit HPRG has SEQ ID NO:3; applicants' designation ATN-234 (protein, UniProt P04196 19-525, looked up)
Histidine-rich glycoprotein: VSPTDCSAVEPEAEKALDLINKRRRDGYLFQLLRIADAHLDRVENTTVYYLVLDVQESDCSVLSRKYWNDCEPPDSRRPSEIVIGQCKVIATRHSHESQDLRVIDFNCTTSSVSSALANTKDSPVLIDFFEDTERYRKQANKALEKYKEENDDFASFRVDRIERVARVRGGEGTGYFVDFSVRNCPRHHFPRHPNVFGFCRADLFYDVEALDLESPKNLVINCEVFDPQEHENINGVPPHLGHPFHWGGHERSSTTKPPFKPHGSRDHHHPHKPHEHGPPPPPDERDHSHGPPLPQGPPPLLPMSCSSCQHATFGTNGAQRHSHNNNSSDLHPHKHHSHEQHPHGHHPHAHHPHEHDTHRQHPHGHHPHGHHPHGHHPHGHHPHGHHPHCHDFQDYGPCDPPPHNQGHCCHGHGPPPGHLRRRGPGKGPRPFHCRQIGSVYRLPPLRKGEVLPLPEANFPSFPLPHHKHPLKPDNQPFPQSVSESCPGKFKSGFPQVSMFFTHTFPK
For the molecule B1, the “inhibition of 3LL tumor-mediated angiogenesis” value in assay [1] is “inhibit 3LL tumor-mediated angiogenesis”. In assay [2], the “inhibition of angiogenesis (hemoglobin in plug)” value was “completely inhibited angiogenesis; also recorded: inhibit angiogenesis”. Further, in the assay with HUVEC (500 nM, stimulated with FGF-2, VEGF and PMA for 24 hours), the “endothelial cell tube formation on Matrigel” value is reported as “almost completely disrupted tube formation; also recorded: inhibition of EC tube formation”. The “inhibition of bFGF-stimulated proliferation of HUVEC” value in assay [3] (100 nM, FIG. 2A) is “almost complete”; in assay [3] (concentration not given, FIGS. 2A, 2B) it was “inhibit proliferation”. In assay [4], the “neovessel formation (blood vessel number)” value is reported as “capable of inhibiting neovessel formation; also recorded: inhibit angiogenesis”. Moreover, the “induction of caspase-3 activity” value in the assay with caspase-3 is “induction of caspase-3”.
